Measurements published in patent US20110059084A1 (BIOTEST, published 2011).

Target: T1, CD4 on primary human peripheral lymphocytes (human, UniProt P01730 26-458)
T1 construct: whole, on cells; also called human lymphocytes
Assay: flow cytometry on human PBMCs (CD3+ lymphocytes), MFI over serial dilutions of BT061
Procedure: Human PBMCs were isolated by density gradient centrifugation and stained with FITC-labelled anti-CD3 antibody (345763; Becton/Dickinson) and serial dilutions of BT061. BT061 binding was detected with an phycoerythrin labelled human IgG antibody (109-116-098; Jackson, Immunoresearch). By flow cytometric analysis the mean fluorescence intensity of CD3+ BT061 binding lymphocytes was determined.

EC50: < 0.01 mg/L
B1: humanized B-F5 H37L/L4M IgG1 (BT061) (antibody, V domains shown)
VH: EEQLVESGGGLVKPGGSLRLSCAASGFSFSDCRMYWLRQAPGKGLEWIGVISVKSENYGANYAESVRGRFTISRDDSKNTVYLQMNSLKTEDTAVYYCSASYYRYDVGAWFAYWGQGTLVTVSS
VL: DIVMTQSPDSLAVSLGERATINCRASKSVSTSGYSYIYWYQQKPGQPPKLLIYLASILESGVPDRFSGSGSGTDFTLTISSLQAEDVAVYYCQHSRELPWTFGQGTKVEIK
notes: also called hB-F5; humanised B-F5
